Experimental data taken from the supplement of paper PMC9112550, “Optimization of the antimicrobial peptide Bac7 by deep mutational scanning” (BMC Biology, 2022).

What follows are sequences tested on Escherichia coli TOP10 (assay: shrunken log2 fold change of peptide-encoding DNA abundance (4.5 h post-induction vs induction); higher = less antimicrobial activity (less host growth inhibition)). Conditions: time post-induction: 4.5 h; library: site-saturation at positions 5, 18, 19, 20.
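Note: peptides expressed intracellularly from a pBAD plasmid library in pooled LB shake-flask culture, induced with 0.3% L-arabinose, DNA abundance read by NGS, three biological replicates, DESeq2 with apeglm shrinkage.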

Row | Sequence | shrunken log2 fold change
1 | RRIRERPPRLPRPRPRPHIFPRP | 0.116
2 | RRIRERPPRLPRPRPRPHIKPRP | -0.932
3 | RRIRERPPRLPRPRPRPHKHPRP | -0.671
4 | RRIRERPPRLPRPRPRPHLAPRP | 0.101
5 | RRIRERPPRLPRPRPRPHMKPRP | -0.286
6 | RRIRERPPRLPRPRPRPHMPPRP | -0.197
7 | RRIRERPPRLPRPRPRPHMVPRP | -0.174
8 | RRIRERPPRLPRPRPRPHRLPRP | -0.18
9 | RRIRERPPRLPRPRPRPHTKPRP | 0.0349
10 | RRIRERPPRLPRPRPRPHTLPRP | -0.571
11 | RRIRERPPRLPRPRPRPHVKPRP | -0.767
12 | RRIRERPPRLPRPRPRPHWGPRP | 0.0212
13 | RRIRERPPRLPRPRPRPIAHPRP | -0.171
14 | RRIRERPPRLPRPRPRPIATPRP | 0.221
15 | RRIRERPPRLPRPRPRPIAWPRP | -0.199
16 | RRIRERPPRLPRPRPRPIDCPRP | -0.409
17 | RRIRERPPRLPRPRPRPIDHPRP | -0.379
18 | RRIRERPPRLPRPRPRPIEQPRP | -0.00133
19 | RRIRERPPRLPRPRPRPIFEPRP | 0.0601
20 | RRIRERPPRLPRPRPRPIHDPRP | 0.0116
21 | RRIRERPPRLPRPRPRPIHHPRP | -0.7
22 | RRIRERPPRLPRPRPRPIIMPRP | -0.119
23 | RRIRERPPRLPRPRPRPIKCPRP | -0.0487
24 | RRIRERPPRLPRPRPRPIKRPRP | -0.171
25 | RRIRERPPRLPRPRPRPIMCPRP | -0.275

Row | Sequence | shrunken log2 fold change
26 | RRIRERPPRLPRPRPRPIMQPRP | -0.164
27 | RRIRERPPRLPRPRPRPIMSPRP | -0.38
28 | RRIRERPPRLPRPRPRPIPHPRP | -0.19
29 | RRIRERPPRLPRPRPRPIPLPRP | -0.275
30 | RRIRERPPRLPRPRPRPIPMPRP | -0.136
31 | RRIRERPPRLPRPRPRPIPQPRP | 0.13
32 | RRIRERPPRLPRPRPRPIPRPRP | -0.138
33 | RRIRERPPRLPRPRPRPIQPPRP | 0.0319
34 | RRIRERPPRLPRPRPRPIRDPRP | 0.0201
35 | RRIRERPPRLPRPRPRPISSPRP | -0.403
36 | RRIRERPPRLPRPRPRPITMPRP | -0.408
37 | RRIRERPPRLPRPRPRPIVNPRP | -0.0349
38 | RRIRERPPRLPRPRPRPIWSPRP | 0.0428
39 | RRIRERPPRLPRPRPRPIYSPRP | -0.413
40 | RRIRERPPRLPRPRPRPKAIPRP | -0.0487
41 | RRIRERPPRLPRPRPRPKDIPRP | 0.0209
42 | RRIRERPPRLPRPRPRPKEDPRP | 0.0193
43 | RRIRERPPRLPRPRPRPKEEPRP | -0.000921
44 | RRIRERPPRLPRPRPRPKEGPRP | -0.129
45 | RRIRERPPRLPRPRPRPKFFPRP | -0.0207
46 | RRIRERPPRLPRPRPRPKGVPRP | 0.723
47 | RRIRERPPRLPRPRPRPKGWPRP | 0.493
48 | RRIRERPPRLPRPRPRPKHKPRP | -0.344
49 | RRIRERPPRLPRPRPRPKIRPRP | -0.121
50 | RRIRERPPRLPRPRPRPKIVPRP | -0.0778

Row | Sequence | shrunken log2 fold change
51 | RRIRERPPRLPRPRPRPKKCPRP | -0.0779
52 | RRIRERPPRLPRPRPRPKKNPRP | -0.0468
53 | RRIRERPPRLPRPRPRPKLQPRP | 0.00297
54 | RRIRERPPRLPRPRPRPKLWPRP | 0.582
55 | RRIRERPPRLPRPRPRPKMGPRP | 0.00452
56 | RRIRERPPRLPRPRPRPKMNPRP | -0.642
57 | RRIRERPPRLPRPRPRPKNGPRP | -0.0133
58 | RRIRERPPRLPRPRPRPKNIPRP | -0.723
59 | RRIRERPPRLPRPRPRPKQEPRP | -0.127
60 | RRIRERPPRLPRPRPRPKTVPRP | -0.0153
61 | RRIRERPPRLPRPRPRPKYAPRP | 0.0159
62 | RRIRERPPRLPRPRPRPLCMPRP | -0.592
63 | RRIRERPPRLPRPRPRPLDDPRP | -0.234
64 | RRIRERPPRLPRPRPRPLEIPRP | 0.0282
65 | RRIRERPPRLPRPRPRPLFTPRP | -0.55
66 | RRIRERPPRLPRPRPRPLFYPRP | -0.513
67 | RRIRERPPRLPRPRPRPLGIPRP | -0.0554
68 | RRIRERPPRLPRPRPRPLGPPRP | 0.099
69 | RRIRERPPRLPRPRPRPLGWPRP | 0.335
70 | RRIRERPPRLPRPRPRPLIIPRP | -1
71 | RRIRERPPRLPRPRPRPLLLPRP | -0.305
72 | RRIRERPPRLPRPRPRPLLPPRP | -0.119
73 | RRIRERPPRLPRPRPRPLLSPRP | -0.206
74 | RRIRERPPRLPRPRPRPLMDPRP | -0.134
75 | RRIRERPPRLPRPRPRPLNTPRP | -1.11
